Results from patent publication US20180036256.

Tests used:
GST-LSD1 = GST-LSD1 (UniProt O60341)
GST-LSD1 K114A = GST-LSD1 K114A (UniProt O60341)

Substance: GST-G9A aa786-1210
- methylation at K114 in vitro (methylation assay, Western blot with anti-LSD1 K114me2) (GST-LSD1): GST-LSD1 but not GST-LSD1 K114A is methylated at K114 by G9A in the presence of SAM
- methylation at K114 in vitro (methylation assay, Western blot with anti-LSD1 K114me2) (GST-LSD1 K114A): GST-LSD1 but not GST-LSD1 K114A is methylated at K114 by G9A in the presence of SAM
